Results taken from patent publication US20240115668A1, “TREATMENT OF SPINAL CORD INJURY WITH PTEN INHIBITOR” (KOLON TISSUEGENE, INC., priority 2020, published 2024).
Where no end group is shown, it is not given here.

What was measured:
PTEN [1] = molecular target: T1, PTEN (Homo sapiens, UniProt P60484); assay: In vitro PTEN activity assay / IC50 assay (Malachite Green phosphate detection, C8-PIP3 liposome substrate); type: biochemical; parameters: purchased R&D Systems, Inc; settings: 10 μM peptide, 20 ng recombinant human PTEN, 0.1 mM C8-PIP3 liposome
Target sequence in this assay (P60484 whole entry): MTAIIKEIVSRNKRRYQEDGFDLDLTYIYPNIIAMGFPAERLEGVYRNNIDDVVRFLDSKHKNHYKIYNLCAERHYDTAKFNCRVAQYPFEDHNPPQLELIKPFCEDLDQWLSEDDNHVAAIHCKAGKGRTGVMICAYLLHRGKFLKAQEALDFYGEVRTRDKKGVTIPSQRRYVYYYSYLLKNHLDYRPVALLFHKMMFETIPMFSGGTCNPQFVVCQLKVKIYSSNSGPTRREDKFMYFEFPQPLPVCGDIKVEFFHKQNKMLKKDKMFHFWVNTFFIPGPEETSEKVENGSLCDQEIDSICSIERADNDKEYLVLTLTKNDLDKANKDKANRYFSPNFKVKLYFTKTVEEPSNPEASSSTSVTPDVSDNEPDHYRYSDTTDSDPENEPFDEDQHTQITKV
Excerpt: In vitro PTEN activity assay was designed to check PTEN lipid phosphatase activity to convert phosphatidylinositol triphosphate (PIP3) to phosphatidylinositol diphosphate (PIP2) and produce phosphate ion (Pi). 1,2-dioctanoyl-sn-glycero-3-phospho-(1′-myo-inositol-3,4,5-triphosphate) (C8-PIP3) was used as PTEN substrate and prepared as lipid vesicle (liposome) with other phospholipids because PTEN as lipid phosphatase is an interfacial enzyme. For liposome preparation, C8-PIP3, DOPS (1,2-dioeloyl-sn-glycero-phosphoserine) and DOPC (1,2-dioeloyl-sn-glycero-phosphocholine) were mixed together with 800 μL of liposome buffer (50 mM Tris, 100 mM NaCl, 10 mM MgCl2, 5 mM DTT, pH=8.0) to final concentration of 0.1 mM of C8-PIP3, 0.25 mM DOPS and 0.25 mM DOPC. The lipid mixture was then sonicated at 4° C. for 30 min to produce liposome. After sonication, the liposome solution was briefly centrifuged to remove remaining lipids.
For PTEN activity assay, 20 ng of recombinant human PTEN protein was mixed with L of completed liposome solution. PTEN assay buffer (1 mM Tris, 20 mM DTT and 0.5% NP-40, pH=8.0) was added up to 100 μL as final volume. […] After incubation, the inorganic phosphate ions produced by PTEN protein was detected using Malachite Green phosphate detection kit. […]
All data represent experimentation in triplicate and the IC50 values were calculated by Prism 5 software (GraphPad Software). […]

PTEN [2] = molecular target: T1, PTEN; settings: previous study of Odriozola et al.; read-out: IC50 (in vitro PTEN activity, Odriozola et al.); cited from earlier work
Target sequence in this assay (P60484 whole entry, species assumed): as the sequence (P60484 whole entry) above

[3] = test system: endogenous Akt protein in PC12 cells; assay: Western blot of Akt activation (phosphorylation) level in PC12 cell lysates; type: cell-based, rat; settings: differentiated PC12 cells, endogenous or overexpressed PTEN; TGN-1 10 and 100 μM, TGN-4 10 μM; 24 hr; anti-phospho Akt antibody
Description: PC12 rat pheochromocytoma cells were seeded to 6-well plate (0.6×10^6 cells/well) and cultured with DMEM media containing 7.5% FBS and 7.5% Goat Serum. After the cell confluency reached around 60˜ 70%, NGF (nerve growth factor, 50 ng/mL) was added to the PC12 cells for differentiation and incubated for 5 more days. Then, fresh media containing different amounts of TGN peptides in DMSO solution were added to each well and incubated further for 24 hr. For PTEN overexpression, PC12 cells were seeded in 6-well plate (1.0×10^6 cells/well) and differentiated with NGF (50 ng/mL) as above. DNA-Lipofectamine 2000 mixture was prepared for each well of cells to be transfected by firstly adding 2˜ 2.5 μg of human PTEN c-DNA into 500 μl of Opti-MEM. 3.75-8.75 μl of Lipofectamine 2000™ reagent was added next to the above diluted DNA solution, mixed gently and incubated for 25 minutes at room temperature. Growth media of PC12 cells in 6-well plate was exchanged with fresh media and 500 μl of the DNA-Lipofectamine 2000 complex was added to each well for transfection. Transfected cells were incubated at 37° C. in 5.0% CO2 incubator for 24-48 hours post-transfection before assaying for transgene expression.
After culturing, PC12 cells were collected from the 6-well plate and centrifuged down with bench-top centrifuger to make cell pellet (13,000 rpm, 5 min at RT). […]

| Substance | Inhibition of PTEN activity (in words) (PTEN [1]) | IC50 (PTEN [2]) | Activation (phosphorylation) level of Akt protein [3] |
| --- | --- | --- | --- |
| RRRRRRRR-DEHDTEYTPDYRQETHFNSQPTDKSDVI-amide (RRRRRRRRDEHDTEYTPDYRQETHFNSQPTDKSDVI-NH2) [TGN-5, scrambled peptide of TGN-2/TGN-3] | no significant inhibition of PTEN activity | – | – |
| Cp23: synthetic phosphomimic peptide of Odriozola et al. encompassing PTEN AA368-390, no phosphorylated Serine residues (DVSDNEPDHYRYSDTTDSDPENE; UniProt P60484 368-390, looked up, fragment) | – | ~1030 µM | – |
| RRRRRRRR-SDDEYTDNPDSRYVSDTPVDTEH-amide (RRRRRRRRSDDEYTDNPDSRYVSDTPVDTEH-NH2) [TGN-4, scrambled peptide of TGN-1, negative control] | no significant inhibition of PTEN activity | – | did not increase the activation level of AKT protein |
